Test results from paper PMC4503226 (FASEB journal : official publication of the Federation of …, 2011).

Target: the molecule itself
Test: FRET or BRET

B1: hOCT2 tagged with CFP or YFP at the N terminus (natural protein)
chain: MPTTVDDVLEHGGEFHFFQKQMFFLLALLSATFAPIYVGIVFLGFTPDHRCRSPGVAELSLRCGWSPAEELNYTVPGPGPAGEASPRQCRRYEVDWNQSTFDCVDPLASLDTNRSRLPLGPCRDGWVYETPGSSIVTEFNLVCANSWMLDLFQSSVNVGFFIGSMSIGYIADRFGRKLCLLTTVLINAAAGVLMAISPTYTWMLIFRLIQGLVSKAGWLIGYILITEFVGRRYRRTVGIFYQVAYTVGLLVLAGVAYALPHWRWLQFTVSLPNFFFLLYYWCIPESPRWLISQNKNAEAMRIIKHIAKKNGKSLPASLQRLRLEEETGKKLNPSFLDLVRTPQIRKHTMILMYNWFTSSVLYQGLIMHMGLAGDNIYLDFFYSALVEFPAAFMIILTIDRIGRRYPWAASNMVAGAACLASVFIPGDLQWLKIIISCLGRMGITMAYEIVCLVNAELYPTFIRNLGVHICSSMCDIGGIITPFLVYRLTNIWLELPLMVFGVLGLVAGGLVLLLPETKGKALPETIEEAENMQRPRKNKEKMIYLQVQKLDIPLN
Question: With B1 as the protein, how does the NFRET read?
Answer: Its NFRET is 0.176.
